This passage reports MFI.Max results from patent EP4667489A1.

The target of this assay is human PDL1 expressed on 293T-PDL1 cells (human) (UniProt Q9NZQ7). The experiment in a line: flow cytometry on 293T-PDL1 cells.
Chain of human PDL1 expressed on 293T-PDL1 cells (human) (Q9NZQ7 19-290): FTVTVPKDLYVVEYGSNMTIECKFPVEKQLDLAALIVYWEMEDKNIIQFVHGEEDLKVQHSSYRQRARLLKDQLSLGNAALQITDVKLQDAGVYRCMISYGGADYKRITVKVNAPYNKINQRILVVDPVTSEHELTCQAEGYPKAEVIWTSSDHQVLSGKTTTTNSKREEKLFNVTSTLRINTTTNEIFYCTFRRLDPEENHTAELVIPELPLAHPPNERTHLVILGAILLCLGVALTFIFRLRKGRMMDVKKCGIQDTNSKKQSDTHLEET

The substance IgG1 irrelevant antibody registered an MFI.Max of 44.1.
